The text below walks through data of US20250304965A1, “DOUBLE-STRANDED RNA MOLECULE AND PHARMACEUTICAL USE THEREOF” (MACAU UNIVERSITY OF SCIENCE AND TECHNOLOGY, priority 2022, published 2025).

What all share (format): cell-based, human
In one data set the test system is A2780 cells. Briefly: MTT cytotoxicity analysis, ovarian cancer cells A2780. To be noted: for inhibition of growth and proliferation (cell viability vs control and RNAiMAX group): ovarian cancer cells A2780, 6.25-200 nM, 48 hours, FIG. 6-8; for IC50: A2780 ovarian cancer cells, 48 hours of treatment, Lipofectamine RNAiMAX transfection reagent, MTT, read-out: Median inhibitory concentration IC50. Here is the method:
(§1) A2780 and HCT-8 cell lines were cultured in RPMI 1640 medium containing 10% FBS and 1% penicillin/streptomycin. HepG2 cell lines were cultured in MEM medium containing 10% FBS and 1% penicillin/streptomycin. All the above cell lines were cultured at 37° C. in a humidified atmosphere containing 5% CO2.
(§2) In the cytotoxicity analysis, exponentially growing cells of each cancer cell line were inoculated at a density of 5000 cells per well in a 100 μL medium in a 96-well microplate and allowed to adhere for 24 hours prior to treatment. Then obtained RNA molecules at successive concentrations with a nucleic acid transfer vector, namely, Lipofectamine™ RNAiMAX transfection reagent (Thermo Fisher Scientific, United States), were added to the cells. After 48 hours of treatment, MTT solution (50 μL per well, 1 mg/mL solution) was added to each well and incubated at 37° C. for 4 hours. Then 200 μL of dimethyl sulfoxide (DMSO) was added, and an optical density of the resulting solution was measured via calorimetry by using SpectraMax 190 microplate reader (Molecular Devices, United States) at 570 nm. Dose-response curves were obtained and IC50 values were calculated via GraphPad Prism 5 (GraphPad, United States). Each experiment was performed three times.
(§3) Before addition of the MTT solution, the inventor determined the cytotoxic effects and IC 50 of the GL1, GL2, GL4, and GL6 mimics at different concentrations of 6.25 nM, 12.5 nM, 25 nM, 50 nM, 100 nM, and 200 nM on A2780, HCT-8 and HepG2 cells. After 48 hours of the treatment of the double-stranded RNA molecules, the cell viability of these cells was compared with that of the control group and the RNAiMAX group. Paclitaxel was used in a comparative example. […] The results were compared with those of the control group and the RNAiMAX group using the transfection agent. For IC50, refer to Table 4. Paclitaxel was used in a comparative example.
(§4) Then the inventor specifically determined the cytotoxic effects and IC50 of the RNA molecules GL2 mimic and different chemically modified GL10, GL11 and GL12 mimics at different concentrations of 6.25 nM, 12.5 nM, 25 nM, 50 nM, 100 nM, and 200 nM on A2780, HCT-8 and HepG2 cells. […] For IC50, refer to Table 5. Paclitaxel was used in a comparative example.

For the next data set, the system named is HCT-8 cells. Briefly: MTT cytotoxicity analysis, colorectal cancer cells HCT-8. The settings on record: for IC50: HCT-8 colorectal cancer cells, 48 hours of treatment, Lipofectamine RNAiMAX transfection reagent, MTT, read-out: Median inhibitory concentration IC50; for inhibition of growth and proliferation (cell viability vs control and RNAiMAX group): colon cancer cells HCT-8, 6.25-200 nM, 48 hours, FIG. 6-8. Here is the method: as §1, §2, §3, §4

For another data set, the system named is HepG2 cells. Nature of the data set: MTT cytotoxicity analysis, liver cancer cells HepG2. To be noted: for IC50: HepG2 liver cancer cells, 48 hours of treatment, Lipofectamine RNAiMAX transfection reagent, MTT, read-out: Median inhibitory concentration IC50; for inhibition of growth and proliferation (cell viability vs control and RNAiMAX group): liver cancer cells HepG2, 6.25-200 nM, 48 hours, FIG. 6-8. How it is done:
as §1, §2, §3, §4

[Ψ] = pseudouridine

Regarding “GL6 mimic: double-stranded RNA from Ganoderma lucidum tRNA-Ile(GAU); antisense SEQ ID NO: 7, sense SEQ ID NO: 16, length 22 (antisense UCGAUUCUUCUUGGGCUUACCA; sense UGGUAAGCCCAAGAAGAAUCGA; RNA, backbone not given here)”, the “inhibition of growth and proliferation (cell viability vs control and RNAiMAX group)” value was “effective in inhibiting growth and proliferation” in the data set with A2780 cells; “effective in inhibiting growth and proliferation” in the data set on HCT-8 cells; “effective in inhibiting growth and proliferation” in the data set on HepG2 cells. The IC50 in the data set on HCT-8 cells came out at 600 nM; in the data set on HepG2 cells, 400 nM.

B1: GL1 mimic: double-stranded RNA from Ganoderma lucidum tRNA-Ile(GAU); antisense SEQ ID NO: 2, sense SEQ ID NO: 11, length 33 (nucleic acid)
antisense: AAGCCUAUAAUUUAAAGGUAGAAUAAUUUCUUG
sense: CAAGAAAUUAUUCUACCUUUAAAUUAUAGGCUU
modifications: RNA, backbone not given here
For B1, the figures for the IC50 in the data set with A2780 cells, with HCT-8 cells and in the data set on HepG2 cells were 225 nM, 84 nM and 350 nM, respectively. In addition, the “inhibition of growth and proliferation (cell viability vs control and RNAiMAX group)” value in the data set with A2780 cells is “effective in inhibiting growth and proliferation”; in the data set on HCT-8 cells it was “effective in inhibiting growth and proliferation”; in the data set with HepG2 cells, “effective in inhibiting growth and proliferation”.

B2: GL12 mimic: chemically modified GL2 double-stranded RNA (pseudouridine); antisense SEQ ID NO: 22, sense SEQ ID NO: 26, length 41 (nucleic acid)
antisense: AUAAGGAAUCUGUAGAAGUUCGAUUCUUCUUGGGCUUACCA
sense: UGGUAAGCCCAAGAAGAAUCGAACUUCUACAGAUUCCUUAU
modifications: antisense: RNA, [Ψ] at 20, backbone not given here; sense: RNA, backbone not given here
B2: the IC50 in the data set on A2780 cells worked out at 43.7 nM; in the data set with HCT-8 cells it was 32.4 nM; with HepG2 cells it was 183 nM. Also, the “inhibition of growth and proliferation (cell viability vs control and RNAiMAX group)” value in the data set on A2780 cells was “have a dose-dependent effect on inhibiting the growth and proliferation”; in the data set with HCT-8 cells, “have a dose-dependent effect on inhibiting the growth and proliferation”; in the data set with HepG2 cells, “have a dose-dependent effect on inhibiting the growth and proliferation”.

B3: GL2 mimic: double-stranded RNA from Ganoderma lucidum tRNA-Ile(GAU); antisense SEQ ID NO: 3, sense SEQ ID NO: 12, length 41 (nucleic acid)
antisense: AUAAGGAAUCUGUAGAAGUUCGAUUCUUCUUGGGCUUACCA
sense: UGGUAAGCCCAAGAAGAAUCGAACUUCUACAGAUUCCUUAU
modifications: RNA, backbone not given here
In the case of B3, the IC50 is 57.2 nM with A2780 cells, 36.3 nM in the data set on HCT-8 cells and 240 nM in the data set on HepG2 cells. In addition, the “inhibition of growth and proliferation (cell viability vs control and RNAiMAX group)” value with A2780 cells is “have a dose-dependent effect on inhibiting the growth and proliferation”; in the data set with A2780 cells (listed as GL2) it was “effective in inhibiting growth and proliferation”; in the data set with HCT-8 cells it was “have a dose-dependent effect on inhibiting the growth and proliferation”; in the data set on HCT-8 cells (listed as GL2) it was “effective in inhibiting growth and proliferation”; in the data set with HepG2 cells, “have a dose-dependent effect on inhibiting the growth and proliferation”; in the data set with HepG2 cells (listed as GL2) it was “effective in inhibiting growth and proliferation”.

B4: GL11 mimic: chemically modified GL2 double-stranded RNA (5-methyluridine); antisense SEQ ID NO: 21, sense SEQ ID NO: 25, length 41 (nucleic acid)
antisense: AUAAGGAAUCUGUAGAAGTUCGAUUCUUCUUGGGCUUACCA
sense: UGGUAAGCCCAAGAAGAAUCGAACUUCUACAGAUUCCUUAU
modifications: RNA, backbone not given here; further chemistry not fully specified
Take B4: the IC50 was determined as 17.2 nM in the data set on A2780 cells, 31.5 nM with HCT-8 cells and 85.3 nM in the data set with HepG2 cells. The “inhibition of growth and proliferation (cell viability vs control and RNAiMAX group)” value in the data set on A2780 cells is “have a dose-dependent effect on inhibiting the growth and proliferation”; in the data set with HCT-8 cells it was “have a dose-dependent effect on inhibiting the growth and proliferation”; in the data set with HepG2 cells, “have a dose-dependent effect on inhibiting the growth and proliferation”.

B5: GL10 mimic: chemically modified GL2 double-stranded RNA (5-methyluridine and pseudouridine); antisense SEQ ID NO: 20, sense SEQ ID NO: 24, length 41 (nucleic acid)
antisense: AUAAGGAAUCUGUAGAAGTUCGAUUCUUCUUGGGCUUACCA
sense: UGGUAAGCCCAAGAAGAAUCGAACUUCUACAGAUUCCUUAU
modifications: antisense: RNA, [Ψ] at 20, backbone not given here; sense: RNA, backbone not given here; further chemistry not fully specified
As for B5, the IC50 in the data set with A2780 cells was 51.9 nM; in the data set with HCT-8 cells, 39.6 nM; in the data set on HepG2 cells it was 144 nM. Further, the “inhibition of growth and proliferation (cell viability vs control and RNAiMAX group)” value in the data set on A2780 cells is “have a dose-dependent effect on inhibiting the growth and proliferation”; in the data set on HCT-8 cells, “have a dose-dependent effect on inhibiting the growth and proliferation”; with HepG2 cells it was “have a dose-dependent effect on inhibiting the growth and proliferation”.
